Test results published in patent publication US6635429, “Heterodimeric nuclear receptors proteins, genes encoding same, and usage thereof” (Institut National de la Sante et de la Recherche Medicale).

Assays:
Details in all cases: protein: extract; tags: yeast-expressed
[1] = molecular target: T1, RARα1/RXRα heterodimer (yeast) (Homo sapiens/Mus musculus, UniProt P10276;P28700 P10276:1-462,P28700:1-467); assay: cell_activity; yeast URA3 reporter, 500 nM 9-cis RA
T1 sequence 1: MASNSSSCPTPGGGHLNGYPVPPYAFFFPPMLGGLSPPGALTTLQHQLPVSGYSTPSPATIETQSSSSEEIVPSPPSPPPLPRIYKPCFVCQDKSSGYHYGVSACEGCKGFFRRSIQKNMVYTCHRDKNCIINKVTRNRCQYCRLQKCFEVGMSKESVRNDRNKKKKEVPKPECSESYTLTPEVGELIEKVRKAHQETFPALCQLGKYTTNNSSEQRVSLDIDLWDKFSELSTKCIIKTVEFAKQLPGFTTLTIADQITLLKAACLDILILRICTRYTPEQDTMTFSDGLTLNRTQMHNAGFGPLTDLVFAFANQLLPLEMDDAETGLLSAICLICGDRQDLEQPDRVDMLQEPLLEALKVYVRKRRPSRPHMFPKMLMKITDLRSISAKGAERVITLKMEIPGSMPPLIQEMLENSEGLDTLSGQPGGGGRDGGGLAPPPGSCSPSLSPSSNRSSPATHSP
T1 sequence 2: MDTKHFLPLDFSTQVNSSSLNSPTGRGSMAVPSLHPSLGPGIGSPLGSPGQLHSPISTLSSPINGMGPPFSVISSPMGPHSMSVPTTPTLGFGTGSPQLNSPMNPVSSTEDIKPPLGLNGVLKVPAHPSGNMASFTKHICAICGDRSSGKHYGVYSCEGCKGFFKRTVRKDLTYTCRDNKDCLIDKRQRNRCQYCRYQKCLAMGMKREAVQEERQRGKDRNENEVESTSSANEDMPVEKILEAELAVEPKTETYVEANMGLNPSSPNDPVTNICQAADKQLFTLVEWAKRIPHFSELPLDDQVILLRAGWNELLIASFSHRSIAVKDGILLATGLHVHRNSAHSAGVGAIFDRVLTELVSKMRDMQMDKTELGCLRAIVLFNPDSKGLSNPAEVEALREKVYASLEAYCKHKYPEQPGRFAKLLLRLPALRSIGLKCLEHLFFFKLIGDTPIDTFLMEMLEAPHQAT
Source text: (§1) FIG. 13A, Sequences of the response elements used in this study consisting of a direct repeat of a hexamer sequence spaced by one to five base pairs (DR1–DR5), or an inverted repeat of the same hexamer with no spacing (IR0). The hexamer repeats are indicated by arrows and the spacer sequences are presented in lower case. FIG. 13B, Transactivation of URA3 reporter genes containing the different elements by homodimers and heterodimers of RARα and RXRα. The sequences represented in FIG. 13A were cloned into the promoter of a URA3 reporter gene carried on a centromeric plasmid to generate the DRn-URA3 reporter series and IR0-URA3. The reporters were introduced into a yeast strain containing multicopy vectors expressing RARα, RXRα or no receptor. […] "Control" indicates the basal reporter activity in the absence of receptors (using "empty" expression vectors), and the experiments using only one receptor were performed in the presence of the corresponding "empty" vector. The white, hatched and black columns indicate the reporter activity in the presence of no ligand, all-trans RA and 9-cis RA, respectively. The reporter activities are given as units of OMPdecase activity per minute per mg protein, and the values represent the average of at least 2 experiments using at least 2 different clones per experiment. […] Similar amounts of each probe (50, 000 cpm) were used in the assays.

[2] = molecular target: T2, RXRα (yeast) (Mus musculus, UniProt P28700 SEQ:1-467); assay: cell_activity; yeast, 9-cis RA
T2 sequence: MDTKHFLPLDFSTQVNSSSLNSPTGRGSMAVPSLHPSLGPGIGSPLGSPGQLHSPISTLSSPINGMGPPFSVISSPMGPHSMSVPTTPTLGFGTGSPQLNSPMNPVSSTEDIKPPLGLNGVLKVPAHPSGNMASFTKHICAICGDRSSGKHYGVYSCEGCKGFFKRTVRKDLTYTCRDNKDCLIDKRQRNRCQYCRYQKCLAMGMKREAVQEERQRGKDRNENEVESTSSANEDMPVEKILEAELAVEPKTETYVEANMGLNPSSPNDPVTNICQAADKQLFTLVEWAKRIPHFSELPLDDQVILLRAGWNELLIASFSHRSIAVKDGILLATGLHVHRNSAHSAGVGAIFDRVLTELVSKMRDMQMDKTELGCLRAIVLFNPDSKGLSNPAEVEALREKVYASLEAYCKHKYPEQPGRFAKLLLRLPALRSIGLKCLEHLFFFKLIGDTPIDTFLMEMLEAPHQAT
Source text: as §1

[3] = molecular target: T1, RARα1/RXRα heterodimer (yeast); assay: cell_activity; yeast, 500 nM 9-cis RA; low absolute activity
Source text: as §1

[4] = molecular target: T2, RXRα (yeast); assay: cell_activity; yeast, ligand dependent; low absolute activity
Source text: as §1

[5] = molecular target: T1, RARα1/RXRα heterodimer (yeast); assay: cell_activity; yeast, 500 nM 9-cis RA
Source text: as §1

B1: DR5 (dsDNA)
DNA 1: AGGTCAGCGAGAGGTCA
DNA 2: TGACCTCTCGCTGACCT
[1]
  activity: 60 fold over control

B2: DR1 (dsDNA)
DNA 1: AGGTCAGAGGTCA
DNA 2: TGACCTCTGACCT
[2]
  activity: ≥ 30 fold
[1]
  activity: 36 fold over control

B3: IR0 (dsDNA)
DNA 1: AGGTCATGACCT
DNA 2: AGGTCATGACCT
[3]
  activity: 40 fold over control
[4]
  activity: 20 fold over control

B4: DR3 (dsDNA)
DNA 1: AGGTCAGCGAGGTCA
DNA 2: TGACCTCGCTGACCT
[5]
  activity: ~10 fold over control

B5: DR4 (dsDNA)
DNA 1: AGGTCAGCGAAGGTCA
DNA 2: TGACCTTCGCTGACCT
[5]
  activity: ~10 fold over control

B6: DR2 (dsDNA)
DNA 1: AGGTCAGCAGGTCA
DNA 2: TGACCTGCTGACCT
[5]
  activity: ~10 fold over control
